Experimental data from article PMC11301380, “Non-invasive strategy: Developing a topical IL-4Rα-specific nanobody for the treatment of allergic airway diseases” (Materials Today Bio, 2024).
Positions count from the first letter of the chain named. In names and notes the source's numbering stands.

B1: nanobody H5 (VHH)
VHH: QVQLVESGGGSVQAGGSLRLSCAASGSISSITYLGWFRQAPGKEREGVAALSTSSGTTYYADSVKGRFTVSLDNAKNTVYLQMNSLKPEDTALYYCAAADKGREYTLARAKYWYWGQGTQVTVSA
notes: synthetic nanobody selected from a library on the convex scaffold (pRDV containing Sb-convex, Addgene 132696) with randomised CDR3; also called H5^WT; H5 monomer; source: E. coli BL21 (pSBinit), periplasmic extract, purified (TALON Superflow)
B2: H5^A110Y (VHH)
VHH: B1 VHH with A110Y
notes: also called H5 mutant A110Y; source: E. coli BL21 (pSBinit), periplasmic extract, purified (TALON Superflow)
B3: H5^E104R (VHH)
VHH: B1 VHH with E104R
notes: also called H5 mutant E104R; source: E. coli BL21 (pSBinit), periplasmic extract, purified (TALON Superflow)

target: T1, extracellular domain of human IL-4Rα (human, UniProt P24394, biotin (Biotin-labeled IL-4Rα on the Biacore sensor chip)); experiment: SPR; Biacore T200; biotin-labeled IL-4Rα immobilised on the sensor chip (BR100531); nanobody 15.625-2000 nM; running buffer PBS pH 7.4; 1:1 kinetic binding model; settings: both partners purified
T1 construct: interleukin-4 receptor alpha, human, extracellular domain; Source and limits of the recombinant protein may stand in the materials list of the supplement; Biotin labelling is told only for the Biacore T200 experiment; also called IL-4 Receptor alpha
T1 sequence (P24394 26-232): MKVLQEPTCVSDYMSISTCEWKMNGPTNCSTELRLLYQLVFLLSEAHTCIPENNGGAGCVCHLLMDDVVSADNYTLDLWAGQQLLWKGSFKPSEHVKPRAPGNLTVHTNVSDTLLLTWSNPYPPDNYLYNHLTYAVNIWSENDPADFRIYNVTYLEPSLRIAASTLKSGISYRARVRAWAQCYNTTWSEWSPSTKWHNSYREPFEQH

Row | Kd | Binder
1 | 1.42 µM | B1
2 | 0.708 µM | B2
3 | 1.03 µM | B3
